Test in all cases: SPR
In general terms: Surface plasmon resonance follows binding to a sensor surface in real time, without labels.

Experiment [1] addresses monkey ACE2 extracellular domain (residues 1-740) fused with the Fc domain of mouse IgG (monkey) (UniProt F7AH40).
The target of experiment [2] is wild Bactrian camel ACE2 extracellular domain (residues 1-740) fused with the Fc domain of mouse IgG (wild Bactrian camel).
The target in experiment [3] is fox ACE2 extracellular domain (residues 1-740) fused with the Fc domain of mouse IgG (fox).
Experiment [4] has as its target bovine ACE2 extracellular domain (residues 1-740) fused with the Fc domain of mouse IgG (bovine) (UniProt Q58DD0).
In experiment [5] the target is raccoon dog ACE2 extracellular domain (residues 1-740) fused with the Fc domain of mouse IgG (raccoon dog) (UniProt B4XEP4).
Experiment [6] addresses sheep ACE2 extracellular domain (residues 1-740) fused with the Fc domain of mouse IgG (sheep).
For experiment [7], the target named is fulvous fruit bat ACE2 extracellular domain (residues 1-740) fused with the Fc domain of mouse IgG (fulvous fruit bat).
Experiment [8] concerns the target mink ACE2 extracellular domain (residues 1-740) fused with the Fc domain of mouse IgG (mink).
The target of experiment [9] is little brown bat ACE2 extracellular domain (residues 1-740) fused with the Fc domain of mouse IgG (little brown bat) (UniProt G1PXH7).
Experiment [10] concerns the target cat ACE2 extracellular domain (residues 1-740) fused with the Fc domain of mouse IgG (cat) (UniProt Q56H28).
Experiment [11] concerns the target pig ACE2 extracellular domain (residues 1-740) fused with the Fc domain of mouse IgG (pig) (UniProt K7GLM4).
Experiment [12] has as its target big-eared horseshoe bat ACE2 extracellular domain (residues 1-740) fused with the Fc domain of mouse IgG (big-eared horseshoe bat).
Experiment [13] has as its target dog ACE2 extracellular domain (residues 1-740) fused with the Fc domain of mouse IgG (dog).
For experiment [14], the target named is horse ACE2 extracellular domain (residues 1-740) fused with the Fc domain of mouse IgG (horse) (UniProt F6V9L3).
The target in experiment [15] is rabbit ACE2 extracellular domain (residues 1-740) fused with the Fc domain of mouse IgG (rabbit) (UniProt G1TEF4).
In experiment [16] the target is alpaca ACE2 extracellular domain (residues 1-740) fused with the Fc domain of mouse IgG (alpaca).
Experiment [17] concerns the target goat ACE2 extracellular domain (residues 1-740) fused with the Fc domain of mouse IgG (goat).

Usually Kd stands for the constant that tells how readily two partners part at equilibrium. As for “SARS-CoV-2 prototype RBD (residues 319-541) (from UniProt P0DTC2 319-541) (domain or fragment)”, the Kd in experiment [1] is 0.022 µM; in [2], 0.104 µM; in experiment [3] it was 0.0562 µM; in experiment [4] it was 0.181 µM; in [5], 0.08 µM; in [6], 0.174 µM. In addition, the Kd turned out to be 0.157 µM in experiment [7]; 0.305 µM in experiment [8]; 0.13 µM in experiment [9]; 0.099 µM in experiment [10]; 0.139 µM in [11]; 0.677 µM in experiment [12]. The Kd was determined as 0.101 µM in [13]; 0.221 µM in [14]; 0.0481 µM in experiment [15]; 11.8 µM in [16]; 0.213 µM in [17].
